{"source": "patent US20200239585A1", "about": "“MODULATING THE IMMUNE RESPONSE USING ANTIBODY-DRUG CONJUGATES” (Seattle Genetics, Inc., priority 2017, published 2020)", "key": {"[1]": {"tested_on": "Hodgkin disease xenograft", "details": "SCID mouse xenograft models of Hodgkin disease; cited from earlier work"}, "[2]": {"tested_on": "CD30+ cell lines", "details": "cited from earlier work"}, "[3]": {"tested_on": "efflux pump activity of T cell subsets", "assay": "rhodamine 123 efflux assay", "assay_type": "cell-based, human", "details": "37° C., 5-hour time-course; FIG. 9D", "description": "Sensitivity of cells to many chemotherapies, including MMAE, is influenced by cell-intrinsic drug efflux activity. T cell subsets were evaluated for relative efflux pump activity using a rhodamine 123 efflux assay, following manufacturer's protocol (Chemicon International, Multidrug Resistance Direct Dye Efflux Assay). Enriched T cell populations were loaded with rhodamine 123, incubated in a 37° C. water bath, and were measured for loss of fluorescence over a 5-hour time-course by flow cytometry."}, "[4]": {"tested_on": "CD25hi CD127lo T regulatory cells", "assay": "activated peripheral blood Treg depletion in vitro", "assay_type": "cell-based, human", "details": "four separate donors, CD3/CD28 beads+IL-2, 4-5 days; FIG. 3A", "description": "(§1) CD25^hi CD127^lo T regulatory cells or CD8^+ T cells, enriched from peripheral blood derived leukoreduction system (LRS) chambers, were plated with CD3/CD28 beads+IL-2 in round-bottom 96-well tissue culture plates for 4-5 days with a titration of BV or control IgG-MMAE. On the final day of the assay, cells were stained as described above (viability dye and αCD30-PE antibody) and evaluated by flow cytometry."}, "[5]": {"tested_on": "peripheral blood T cell subsets", "assay": "immunophenotyping of peripheral blood in classical Hodgkin lymphoma patients after BV", "assay_type": "in vivo, human", "description": "The effects of BV on circulating immune cells has not previously been fully elucidated. Sixty-two patients adult patients with classical Hodgkin lymphoma (cHL) that had relapsed or was refractory to frontline chemotherapy were enrolled in a study to evaluate treatment with BV. Patients were excluded if they previously received prior salvage therapy, including salvage radiotherapy, for refractory cHL; BV or any immuno-oncology therapy affecting the PD-1, CTLA4, or CD137 pathways; and/or allogeneic or autologous stem cell transplant (ASCT). BV was administered to the patients at a dose of 1.8 mg/kg on Day 1 and the patients were assessed on Day 8. Immunophenotyping of peripheral blood by flow cytometry was performed by Q2 Solutions on heparinized whole blood. Cell pellets, resulting from plasma banking, were sent to Adaptive for T Cell Receptor β (TCRβ) sequencing. Peripheral blood mononuclear cells were isolated from CPT tubes, frozen, and then analyzed in batches by Caprion using their intracellular cytokine staining platform following peptide stimulation."}, "[6]": {"tested_on": "iTregs and CD8+ T cells", "assay": "iTreg / CD8+ T cell co-culture suppression assay", "assay_type": "cell-based, human", "details": "iTregs:CD8+ T cells 1:2, CD3/CD28 beads, four days, increasing concentrations, two donors; FIG. 2C, 2D", "description": "As shown in FIG. 2A and FIG. 2B, increasing the iTreg/CD8^+ T cell ratio, for each donor, further abrogated T cell expansion, confirming suppressive function. To evaluate the effect of BV on iTreg suppression in vitro, co-culture suppression assays were performed. iTregs and CD8^+ T cells were mixed at a 1:2 ratio and combined with CD3/CD28 beads. Replicate wells were treated with a titration of BV or control IgG-MMAE. After four days of culture, viable iTregs and CD8^+ T cells were quantified by flow cytometry."}, "[7]": {"tested_on": "human T regulatory cells and CD8+ T cells", "assay": "xeno-GVHD model, human T cell subtypes in spleen", "assay_type": "in vivo, NSG mice"}, "[8]": {"tested_on": "CD8+ T cells", "assay": "activated peripheral blood CD8+ T cell depletion in vitro", "assay_type": "cell-based, human", "details": "up to 10 μg/ml of BV, CD3/CD28 beads+IL-2, 4-5 days; FIG. 3B", "description": "as §1"}, "[9]": {"tested_on": "inducible T regulatory cells (iTregs)", "assay": "iTreg viability on in vitro proliferation with a titration of BV or control IgG-MMAE", "assay_type": "cell-based, human", "details": "CD3/CD28 beads, 4-5 days", "description": "CD4^+ T cells, isolated from healthy donor PBMC (Astarte Biologics, Bothell Wash.) were used to generate inducible T regulatory cells (iTregs). iTreg differentiation was performed over 1-2 weeks in 6-well tissue culture plates at 37° C. Cells were incubated with CD3/CD28 MACS iBead particles (Miltenyi biotec) at a 1:32 bead/cell ratio, in 2-3 ml of X-VIVO 15 media (Lonza) containing 1L-2 (50 ng/ml), TGFβ (50 ng/ml), and a 1:100 dilution of Lipid-Mixture 1 (Sigma-Aldrich). iTregs were evaluated for FoxP3 and CD30 expression by FACS analysis on an Attune NXT flow cytometer (Life Technologies). Following differentiation, individual donor iTreg populations ranged between 20-80% FoxP3^+ and 40-70% CD30^+.\nTo evaluate the effect of brentuximab vedotin (BV), and anti-CD30 antibody drug-conjugate on iTreg viability, cells were driven to proliferate in vitro in the presence of BV or control antibody drug-conjugate (IgG-MMAE). Briefly, iTregs were mixed with CD3/CD28 beads (8:1) in RPMI 10% FCS and were distributed at approximately 2.0×10^4 cells/well into a 96-well round-bottom plate. A titration of BV or control IgG-MMAE was added to replicate wells at the concentrations listed, for a final volume of 200 μl, and plates were incubated at 37° C. for 4-5 days. […]"}}}
{"molecule": "cAC10: chimeric IgG1 monoclonal antibody that specifically binds CD30", "values": [{"measurement": "antitumor activity", "setting": "[1]", "result": "pronounced antitumor activity"}, {"measurement": "growth of CD30+ cell lines in vitro", "setting": "[2]", "result": "induces growth arrest"}]}
{"molecule": "rhodamine 123 [rhodamine-123]", "values": [{"measurement": "clearance of intracellular rhodamine-123 in CD8+ T cells", "setting": "[3]", "result": "rapid clearance"}, {"measurement": "rhodamine-123 efflux in T regulatory cells among T cell subsets", "setting": "[3]", "result": "slowest"}]}
{"molecule": "brentuximab vedotin (conjugate) VH: QIQLQQSGPEVVKPGASVKISCKASGYTFTDYYITWVKQKPGQGLEWIGWIYPGSGNTKYNEKFKGKATLTVDTSSSTAFMQLSSLTSEDTAVYFCANYGNYWFAYWGQGTQVTVSA VL: DIVLTQSPASLAVSLGQRATISCKASQSVDFDGDSYMNWYQQKPGQPPKVLIYAASNLESGIPARFSGSGSGTDFTLNIHPVEEEDAATYYCQQSNEDPWTFGGGTKLEIK", "values": [{"measurement": "viable CD30+ Treg numbers", "setting": "[4]", "result": "dose-dependent reduction"}, {"measurement": "reduction of CD30+ regulatory T cells compared to reduction of other CD30+ T helper cells", "setting": "[5]; 1.8 mg/kg on Day 1, assessed on Day 8", "result": "more significantly"}, {"measurement": "T helper cell subset populations including regulatory T cells", "setting": "[5]; 1.8 mg/kg on Day 1, assessed on Day 8, peripheral blood, FIG. 5", "result": "reduction"}, {"measurement": "number of CD30-expressing regulatory T cells in the peripheral blood", "setting": "[5]; 1.8 mg/kg on Day 1, assessed on Day 8, FIG. 7", "result": "significantly reduced"}, {"measurement": "number of CD30+ T regulatory cells as compared to CD30− T regulatory cells", "setting": "[5]; single treatment, versus baseline, FIG. 7", "result": "reduced"}, {"measurement": "CD8+ T cell accumulation in co-culture", "setting": "[6]", "result": "augmented"}, {"measurement": "viable iTregs in co-culture", "setting": "[6]", "result": "selectively reduced"}, {"measurement": "human T regulatory cells in the spleen", "setting": "[7]; single i.p. 3 mg/kg on day 5, spleens on day 12, compared to PBS alone, FIG. 4A", "result": "significantly reduced"}, {"measurement": "splenic CD8+ T cells", "setting": "[7]; single i.p. 3 mg/kg on day 5, spleens on day 12, FIG. 4B", "result": "unaffected by BV treatment with a trend toward increased numbers"}, {"measurement": "CD8+ T cell/Treg ratio in vivo", "setting": "[7]; single i.p. 3 mg/kg on day 5, spleens on day 12, FIG. 4C", "result": "increased"}, {"measurement": "depletion of CD30+ CD8+ T cells", "setting": "[8]", "result": "did not deplete"}, {"measurement": "numbers of CD30+ iTregs", "setting": "[9]; FIG. 1B", "result": "enhanced depletion"}, {"measurement": "total viable iTreg numbers", "setting": "[9]; five separate donors, FIG. 1A", "result": "dose-dependent reduction"}]}
